Results taken from the supplement of paper PMC9112550, “Optimization of the antimicrobial peptide Bac7 by deep mutational scanning” (BMC Biology, 2022).

System: Escherichia coli TOP10
Test: shrunken log2 fold change of peptide-encoding DNA abundance (4.5 h post-induction vs induction); higher = less antimicrobial activity (less host growth inhibition)
Settings: time post-induction: 4.5 h; library: site-saturation at positions 5, 18, 19, 20
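Further: peptides expressed intracellularly from a pBAD plasmid library in pooled LB shake-flask culture, induced with 0.3% L-arabinose, DNA abundance read by NGS, three biological replicates, DESeq2 with apeglm shrinkage.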

RRIRKRPPRLPRPRPRPWIIPRP
shrunken log2 fold change: -0.277

RRIRKRPPRLPRPRPRPWIYPRP
shrunken log2 fold change: -0.00162

RRIRKRPPRLPRPRPRPWKMPRP
shrunken log2 fold change: 0.0749

RRIRKRPPRLPRPRPRPWLQPRP
shrunken log2 fold change: -0.0256

RRIRKRPPRLPRPRPRPWLWPRP
shrunken log2 fold change: 0.00796

RRIRKRPPRLPRPRPRPWMYPRP
shrunken log2 fold change: -0.122

RRIRKRPPRLPRPRPRPWNAPRP
shrunken log2 fold change: 0.0384

RRIRKRPPRLPRPRPRPWNMPRP
shrunken log2 fold change: -0.181

RRIRKRPPRLPRPRPRPWPAPRP
shrunken log2 fold change: 0.376

RRIRKRPPRLPRPRPRPWQAPRP
shrunken log2 fold change: 0.000778

RRIRKRPPRLPRPRPRPWQIPRP
shrunken log2 fold change: 0.141

RRIRKRPPRLPRPRPRPWRCPRP
shrunken log2 fold change: -0.0463

RRIRKRPPRLPRPRPRPWRHPRP
shrunken log2 fold change: 0.094

RRIRKRPPRLPRPRPRPWRNPRP
shrunken log2 fold change: -0.0406

RRIRKRPPRLPRPRPRPWRVPRP
shrunken log2 fold change: 0.122

RRIRKRPPRLPRPRPRPWSLPRP
shrunken log2 fold change: 0.0414

RRIRKRPPRLPRPRPRPWSRPRP
shrunken log2 fold change: -0.0012

RRIRKRPPRLPRPRPRPWSTPRP
shrunken log2 fold change: 0.0277

RRIRKRPPRLPRPRPRPWVHPRP
shrunken log2 fold change: -0.0825

RRIRKRPPRLPRPRPRPWVMPRP
shrunken log2 fold change: -0.251

RRIRKRPPRLPRPRPRPWWHPRP
shrunken log2 fold change: 0.047

RRIRKRPPRLPRPRPRPWYIPRP
shrunken log2 fold change: -0.568

RRIRKRPPRLPRPRPRPYADPRP
shrunken log2 fold change: -0.0355

RRIRKRPPRLPRPRPRPYATPRP
shrunken log2 fold change: 0.0656

RRIRKRPPRLPRPRPRPYCKPRP
shrunken log2 fold change: 0.0355

RRIRKRPPRLPRPRPRPYDMPRP
shrunken log2 fold change: -0.0843

RRIRKRPPRLPRPRPRPYDYPRP
shrunken log2 fold change: -0.0386

RRIRKRPPRLPRPRPRPYFCPRP
shrunken log2 fold change: -0.288

RRIRKRPPRLPRPRPRPYFEPRP
shrunken log2 fold change: -0.584

RRIRKRPPRLPRPRPRPYFHPRP
shrunken log2 fold change: -0.225

RRIRKRPPRLPRPRPRPYFNPRP
shrunken log2 fold change: -0.593

RRIRKRPPRLPRPRPRPYKAPRP
shrunken log2 fold change: -0.0235

RRIRKRPPRLPRPRPRPYLHPRP
shrunken log2 fold change: -0.31

RRIRKRPPRLPRPRPRPYLLPRP
shrunken log2 fold change: -0.525

RRIRKRPPRLPRPRPRPYLWPRP
shrunken log2 fold change: 0.125

RRIRKRPPRLPRPRPRPYMFPRP
shrunken log2 fold change: -0.109

RRIRKRPPRLPRPRPRPYNDPRP
shrunken log2 fold change: -0.00691

RRIRKRPPRLPRPRPRPYNHPRP
shrunken log2 fold change: -0.0988

RRIRKRPPRLPRPRPRPYNPPRP
shrunken log2 fold change: -1.13

RRIRKRPPRLPRPRPRPYPQPRP
shrunken log2 fold change: 0.0235

RRIRKRPPRLPRPRPRPYQNPRP
shrunken log2 fold change: -0.198

RRIRKRPPRLPRPRPRPYQTPRP
shrunken log2 fold change: 0.0193

RRIRKRPPRLPRPRPRPYRDPRP
shrunken log2 fold change: -0.0176

RRIRKRPPRLPRPRPRPYRVPRP
shrunken log2 fold change: -0.0373

RRIRKRPPRLPRPRPRPYVAPRP
shrunken log2 fold change: 0.111

RRIRKRPPRLPRPRPRPYVDPRP
shrunken log2 fold change: -0.24

RRIRKRPPRLPRPRPRPYVPPRP
shrunken log2 fold change: -0.423

RRIRKRPPRLPRPRPRPYWQPRP
shrunken log2 fold change: -0.0316

RRIRKRPPRLPRPRPRPYWYPRP
shrunken log2 fold change: -0.667

RRIRKRPPRLPRPRPRPYYGPRP
shrunken log2 fold change: -0.101

RRIRKRPPRLPRPRPRPYYIPRP
shrunken log2 fold change: -0.372

RRIRLRPPRLPRPRPRPAAQPRP
shrunken log2 fold change: 1.25

RRIRLRPPRLPRPRPRPACEPRP
shrunken log2 fold change: 0.317

RRIRLRPPRLPRPRPRPACSPRP
shrunken log2 fold change: 0.0854

RRIRLRPPRLPRPRPRPAGPPRP
shrunken log2 fold change: 0.338

RRIRLRPPRLPRPRPRPAIGPRP
shrunken log2 fold change: -0.00988

RRIRLRPPRLPRPRPRPAISPRP
shrunken log2 fold change: 0.118

RRIRLRPPRLPRPRPRPAITPRP
shrunken log2 fold change: -0.252

RRIRLRPPRLPRPRPRPAKMPRP
shrunken log2 fold change: -0.169

RRIRLRPPRLPRPRPRPAKPPRP
shrunken log2 fold change: 1.22

RRIRLRPPRLPRPRPRPALFPRP
shrunken log2 fold change: 0.488

RRIRLRPPRLPRPRPRPALWPRP
shrunken log2 fold change: 0.754

RRIRLRPPRLPRPRPRPAMPPRP
shrunken log2 fold change: 0.234

RRIRLRPPRLPRPRPRPAMSPRP
shrunken log2 fold change: 0.019

RRIRLRPPRLPRPRPRPAMVPRP
shrunken log2 fold change: 0.0527

RRIRLRPPRLPRPRPRPAPRPRP
shrunken log2 fold change: 0.816

RRIRLRPPRLPRPRPRPAPVPRP
shrunken log2 fold change: 0.23

RRIRLRPPRLPRPRPRPAPYPRP
shrunken log2 fold change: 0.0426

RRIRLRPPRLPRPRPRPAQCPRP
shrunken log2 fold change: -0.23

RRIRLRPPRLPRPRPRPAQDPRP
shrunken log2 fold change: 0.392

RRIRLRPPRLPRPRPRPAQHPRP
shrunken log2 fold change: -0.132

RRIRLRPPRLPRPRPRPARWPRP
shrunken log2 fold change: 0.284

RRIRLRPPRLPRPRPRPARYPRP
shrunken log2 fold change: -0.0839

RRIRLRPPRLPRPRPRPASAPRP
shrunken log2 fold change: 0.202

RRIRLRPPRLPRPRPRPATDPRP
shrunken log2 fold change: 0.142
